Results as given in the domain aggregation screens of Martell et al. (2025).

Assay: soluble fraction after stress (log2 fold change); higher = more stays soluble; pooled small domains, quantitative proteomics
Conditions: stress: 75 degC
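Note: 20 min heating vs room temperature control held 20 min.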

Sequence	soluble fraction (log2)
HMIVSVPNVRGMGESKAAAALQNRGLLVSIDYESSTSASQGEVIRQSISPGTEVTKGSSITIIIAVSPN	-1.56
HMGEQVFSRKDLAINGNDLKAVFGWPPGPKYREALDQLFHWVLEDPARNRRETLLAYLHSLYD	-0.136
HMFETLVLALAQAWPAERGPVEALQFEGGRLSLQRSGFADEQVEALRQRLSSEGWTLQTEQGRLILNKAG	-1.17
HMENSLLSESLAKIYIKTHRYERAYEILSRLSLAVPEKNAYFADQLRFLRKVMLAESFRKQHS	0.0207
HMTLSHAINRLRLNANMSQEQFAGLFHVSQQSVQKWESGDSVPELSKLIAIAKHFGISLDALILGN	-2.52
HMISESLLDEIPGLGETRRNSLLREFGSVAMIRKASAEEIASRVRGIGAEFAAAIHDFLQTH	-0.446
HMPNPSAGRVHIDALLPFDRVEVTDMQGSLLLDHSFSPRRAVDLDLNARGTLLYTLWSKGHLLGKGRVVR	-0.606
HMRITTKNYFKAISEVGFENLPEVLKKSHLVIEEKTNKGNDWGIYENDAEAKKVFDLAFDKLEEFIDRKED	0.461
HMDFSYTVGDIDEPIDSRGNSVIMLRKLAWGSNAEKLEIRRWIIDIDSERANKGVTFLTEEGPHNLVRV	0.272
HMPDITAAVARTLQALRADRGWSLDQLAARSGVSKGVLVALEQGRSNPNLATLARIGDAFGVPVTLLVDL	-1.45
HMTPVEVNARGVHVDFSKGGILLEDVVRHLILEALRASEWKRGPAAQLLGISKETLRYRMEKYRLYPP	-2.43
HMLTYPEHVRLRMIELRKTRSLSQSEFGTYLGLSYQTISSLELGRHEWSLAHIQTALLRFELPPNYF	-4.27
HMTTKYMVLVNWVKEKVRTNELKTGEKLYSEHEFSRMFHMSRQTVRHGISILERENIVERRQGSGTFIKDA	-2.95
HMIEQIELEARVPDELGGQRLDQVAAQMFDDFSRSRLTGWIRDGSLTADGQQLRPRDIVYGGTLLQLKAEQ	0.132
HMFTIGENIRDLRLERAITQEQLAEQLNVSAPAVSKWERGEAYPDITLVPKLAEILGVSTDKLFGVD	0.0273
HMSSEDTQSRDRARKELSNEMSRIMKRYGLDYQPRDNADDIMNRLKAAGADENTLAYVQEKLK	-0.0442
HMTDWNTVEKETLSAIQKVLSGQASWIDLSPADHSIRHMQHEMVQQAGLISQSYGKEPMRRIRIYQNP	-0.039
HMEPDDLTVIKGIGPVAAKDLNEQGIITFAQLAKLSDKDVAKIDEHMPFSADQIKDWREQAKELAK	0.739
HMSDIISEIESQVMFKLATYEITNATEKMIEALINSEINDRRTLGFPIPNEQGRIFLVRSIQNKLAV	-2.77
HMSPFYALDEVDSFLDGVNVERLAALIARQAEQAQFLVVSHRRPMIGASTRTIGVTQARGAHTQVVGLP	-0.312
HMSSVEEILQTLGGRIRTQRLAQGISQQVLADRAGLSLGAVRQLEGSGQSGLDTLVRVLFVLGIVDEL	-2.27
HMRPKVADIDYFDGKTFTIEDGSKHSITTSEAKKIYFYLVKNGYVDDESHVTDAYRSAATSGTLA	0.0416
HMESDAIAAAIAALPARYREVLLLRYDNGFSYSEISKALDMTEAAVRKTVQRAKEALQRTLQIQEEDT	-0.767
HMDSLQDFAYEEIKKRIQNGEYAPGTKLNTQEISDSLGISRSPVLAAINRLIALGLVEATPRKGTTVA	-0.116
HMNTTTTKVVSVSSLNMRSGPSTSYNIIEVLTKDTQVEVISVEDGWAKIKYNSKTGYVSNQYLSDKK	-0.934
HMNQEIELLLREPDFTSAARLAMAINERFTNSARAIDPTSVKVRMPEGLDQASVDFVARLEDIEMSPDT	0.155

Sequence	soluble fraction (log2)
HMDPHEEELLRQLIRGDIAGYEVLFHKYYPTFFAFIKGMTKETVVAEDITQNIFMKVWLNRERLDAA	-0.145
HMKMSLKENLLELLQKSSGEFLSGERAAETLGVSRTAVWKAVTSLKNEGYNIESVTNRGYRFS	-0.34
HMTVIARQIPPLVPRMLDGLEAFIKLDVPFEEKERLARVQMLRSSLDRDNLDTAEIFRAVLEAYNIELQY	0.352
HMFIMQTVALGSEGPDVRALQSILNRIGYNAGTVDGIFGSRTRQAVIAFQRNNGLAADGVAGPATWG	0.188
HMGSYANAWQLAEHAAKDMLGEVIYLLDGKEVHAGILETMSAESIKTASAENVDGKVVIRLVSK	-0.15
HMQKTVLAASVYERMKERIMDQYYPPGERLNIDALAIDLAVSPTPIREALARLAAERLITFEAYKGYRVSP	-3.38
HMTVAQEIEARRATIRSSDPAEMARFIRWLIMEGHTEPAADELKKYAENFPEASATTKQLQALLAAR	-0.311
HMTPADEAGNDLDIGQTVKILRRVSEGQYEVSYRGTTWQARALNAQAAVEPSFAVIGGKEGNILLVHL	-0.202
HMLGDIYISIPRAKLQAEEYGHSFKRELAFLAVHGFYHLLGYDHQTKEEEEVMFGKQEEVLAEFDIKR	-0.0616
HMVSATKAFVNGGNIVVSSPKATRVAVYNVAGQKVAEQAFAGKATIKASDFAKGIYVLKFNDNTVLKLT	-0.955
HMIRILIVDDSAFMRKLLSDVFEEDKNFVVVDTARNGQDAVEKVKRLKPDLVTMDVEMPVMDGLTAVEIIM	-0.453
HMRDGYEKPTEVGEGGRNPAMLSYIGHLRAKGHLSEEDIRSMAHGFNATTFDPPLDRDEVDGLVSRY	0.106
HMDLMQRVIIVRPVMQGDYLTRAHLGLQTLSRNGGGGFTDIDDLVGRRAKKSLRAGLVVHNRHL	-0.813
HMSEYEYALHEFGITKKQSQRIFDRLSIADLEERINAIQTTLKQRSDIDNPAAYAWTVLNAE	-0.0603
HMDSLARKTVNGAEFYIYPVESAEGFYSLRRKFGVSQEEVIKYNPSAQNGLKSGQVLLIPVT	-0.298
HMNYIEWKNTFKKYLYLLPIKEEKETLAYFDEQYNKLNPKDLDNVENIFSDPIDKAAFVVAFYLEMEDEIK	-0.895
HMLAQVSDEGPIRAMVEAVMARSTQQLEDYKNGKVKLRQYFFGEVMKAAKGKANPTVINKLLDEMLPETL	-0.314
HMDLIEVLAQDTIKKIYNTYVAYKNKVDVFYVAFSGGKDSIVTLDLVQRTLPHNEFKVLFGDTGM	0.243
HMKTLDATQRLKLNGEGIIVFNFGKYVDQPVVEIFKKERGYFAWMMSKDFSQQVKNIITKIHNEEILGK	-3.01
HMNYTALLNNFSENMKKRRVELSLSQKELASIVGVSVRTIQNYENKKTIPTSAVMESISIALDMGLEKMID	-1.91
HMFTYDLSERELTIIELVAKGLNNKELADTLFLSEGTIRNYLSTLLNKLDLRDRTQLAIFYYQHL	-2.16
HMLADIGGRIADLRREVGLTQGELAEKADISVVHLSNIELGKKTPGLSTLIRIAEALDVATDWILQA	-1.38
HMGSLGRAIRSRREKMKVGLEELAAKTGLSESHISDIEEGRGFAPVGDILKIARALTIDPGELLK	0.49
HMTYIQSNLKFLRNKMNISQEELAKRLFVTHQTVSNHENGKSQPNFEMIEKYASFFNVPFEDLIHKDLSL	-0.68
HMVREVSYDQFLHFVEAKQVGMVYQDGESLMFTLKEDVEKEWGVTAYKTGLWPDANLTDRLLDAGVVFS	-2.32
HMSSQLETTFATLIGKRVSIRLHDPEGGFRDILGHLESPYSLRNRHGNLIEFAHDQIFLWREVI	-1.82

Sequence	soluble fraction (log2)
HMNGKWKLRIIKELLHSNIRFGQILKNIPDISPKVLSQQLKEMEEDGIIERIVISEMPPNVEYVLTDMGE	-1.66
HMSNWTILIIQGSAHLIDLDSKITEIDGFGSFPTKILQDYNLNEEFEIFDTNVKMVNSVQSDLQSN	-2.48
HMRKRLLQLVHIGKSQLGMDDETYRSLLSQQFYQNSAKNISYSELVKLVKILQQKGAKIRLPH	-2.17
HMQQLIEFSVTKGHPWINKKIMDLNLPENQLILTIQREGHVVSAEGKTIILENDRITISTDDR	-1.26
HMNIEDFKDKVKELKQYTYQELVEDVKLKTDRADVILPASKIYLEAMQQAKVDSIIVPKVGLAEGVAR	-0.012
HMTLKVQLSEISKMVSLSYIAKKYFNKSQSWLSQRINGNTIHNKPAKFTSEELATLQFALKDIGNILNSTV	-2.6
HMVITQVSTTQTDTTFQYHKVKPKETLFSISRLYEVSIDEIKTINPALNSRELMAGELLKLPIK	-1.4
HMVTKTTYAYERLKREIMDGTLGQGEKLVVNAISQRYQVSPMPIREALLKLEQEGLVQSAPHRGAWVHK	-0.776
HMGGLIDQSIQEIIDKYSVPGKKIQKAQRLKIVAEMHTKGIFKMRGGVQQAAQALGVTRYTVYNDLEVMN	-3.08
HMVTQVDYGTFLTRIDEGKVKSVEIQDNQIAFTAIDEAGKENIYVTGKVNDPELVDRLLAADIEDFSQVIP	0.0911
HMERAFRILELFDLKQDELPITEIAERTGLPISTAHRLLSTLETLGYIAQNPDNGRYRLGLQTFVLGSR	-1.86
HMKTLPADPTVKNFSYTVVDGEIYYRENSIMTQIELSDNAKGRVAGMVELRQIVNELIDQQLND	-0.849
HMENTSPMTPEQSKALMAYLTKRHGDSREAYLSELSQFFGRPLSSSRELTKADVSEFLNAIN	0.0561
HMTLVSALDQKTKDSAYYRGTYLAGKISAGKMTKQEAVADIMKNYDGNTAAMKVAAEKAGVSDLLSQTVL	0.0489
HMAGASQAVKAQLRLREMILAGELPGGARIAELTLVEKLGVSRTPIRAALMRLEQEGLLHRLPGGGYAVRT	-2.27
HMGTISKRINPSGTTVYRAVIRIRKNGYPNFTESRTFSKKSMAAEWVKRREAEIELNPDILFG	-2.57
HMNIGVEQIEQMERGALITLWQELIDKPLPRHMSIVFLRQVLAFEVQSKQNGGLPRGFITLLNKQAD	-0.826
HMTDSQLVEAENHVALRQAMAHLGPRERELIGLYYFEEQSQTQIAARFGVSQMQVSRWLTSAVGRIRGQMA	0.209
HMSTILERLIMLQEQSGMNQKQLQKELGLSNSAFSDWKKGKGRPSVEALVRFSEFFGVSMDWLAFG	-2.27
HMETLGADLRALRKSRGLTLLDMAESLGRSVGWLSQVERDLSDPSISDLREIAELLGVPISMLFRH	-2.83
HMVSRKIENPYWANKEKQHIIAEFFYPDTNKRVTASIMNDGSNRDYEEILRGYSIEQIDANTNRRLEER	0.566
HMNVKVSVDDIARPGLMASGRVTFADGNRGMWYVDEMGRLGIDPEVEGYQPSEADIQAFQRELQSVMES	-0.00333
HMVVEGMQFDRGYLSQYMVTDNEKMVADLENPYILITDKKISNIQEILPLLESILQSSRPLLIIADD	-0.0369
HMWNLPDPVVRPEGNVTVYENFKNTVEVLNREADLVLKFLQNEFGTSANIDDTGRARLTGSFSTDRVSSVI	-0.328
HMEITGKYKAKEDIKLKVIPLISSLDLQDIKQNTELEVKDTMNNWAYVTVQEKQGWVVLEKIEKVE	-0.631
